Reference: patent publication US20230303667A1 (EMORY UNIVERSITY, published 2023)

T1: Ebola Zaire (Kikwit strain) glycoprotein (Ebola Zaire (Kikwit strain), UniProt P87666 33-676)
T1 sequence: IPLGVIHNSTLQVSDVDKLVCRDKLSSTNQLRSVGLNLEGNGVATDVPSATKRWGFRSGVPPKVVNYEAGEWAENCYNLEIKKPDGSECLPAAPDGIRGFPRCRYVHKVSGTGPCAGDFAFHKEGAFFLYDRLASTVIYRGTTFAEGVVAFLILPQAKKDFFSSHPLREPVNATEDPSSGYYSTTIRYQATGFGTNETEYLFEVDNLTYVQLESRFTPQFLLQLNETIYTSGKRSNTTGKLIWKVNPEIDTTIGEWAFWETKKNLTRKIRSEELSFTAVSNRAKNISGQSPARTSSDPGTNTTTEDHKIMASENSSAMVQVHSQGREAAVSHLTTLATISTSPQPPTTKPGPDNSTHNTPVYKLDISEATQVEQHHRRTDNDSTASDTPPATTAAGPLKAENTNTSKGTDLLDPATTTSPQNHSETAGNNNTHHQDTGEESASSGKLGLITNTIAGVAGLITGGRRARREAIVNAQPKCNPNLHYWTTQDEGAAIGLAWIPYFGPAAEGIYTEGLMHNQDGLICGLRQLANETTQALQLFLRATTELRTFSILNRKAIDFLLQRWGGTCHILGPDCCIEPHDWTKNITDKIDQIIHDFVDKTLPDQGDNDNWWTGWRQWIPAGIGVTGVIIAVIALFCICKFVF

B1: 9.6.3D06 (antibody, V domains shown)
VH: EVQLLESGGGLVQPGGSLRLSCAASGFTFSKYAMIWVRQAPGKGLQWVAGINKSGGRTYYADSVRGRFTISRDNSKNTLYLQMKSLRADDTAMYYCAKEGSPLSDVLLVAAPFGWFDPWGQGTLVTVSS
VL: DIQMTQSPSTLSASVGDRVTITCRASQRINNLVAWYQQKPGKAPKVMIYDASSLKSGVPSRFSGSGSGTEFTLTISSLQPDDFATYFCQQYDTDSGWTFGQGTKVEIK
B2: 2.1.1D05 (antibody, V domains shown)
VH: EVQLVESGGGLVKPGGSLRLSCAASGFTFSNAWMNWVRQAPGKGLEWVGRIKSKTDGGAADYAAPVKGRFTISRDDSKNTLYLQMNSLKTEDTAVYFCTTVYRYNYDSVWGQGTLVTVSS
VL: QSVLTQPPSVSGAPGQRVTISCTGSSSNIGAGYDVYWYQQLPGTAPKLLIYGNSNRPSGVPDRFSGSKSGTSASLAITGLQAEDEADYYCQSFDSSLRDSWVFGGGTKLTVL
B3: 5.1.10B3 (antibody, V domains shown)
VH: EVQLVESGGGLVQPGGSLRLSCAASGFTFRSYDMHWVRQATGKGLEWVSAIGTAGDTYYPGSVKGRFTISRENAKNSLYLQMNSLRAEDTAVYYCARVRFGDTAVDYWGQGTLVTVSS
VL: DIQMTQSPSSLSASVGDRVTITCRASQSISSFLNWHQQKPGKAPKLLIYAASSLQSGVPSRFSGSGSGTDFTLTISSLQPEDFAIYYCQQSYISPFTFGPGTKVDIK
B4: 2.1.1D07 (antibody, V domains shown)
VH: EVQLLESGGGLVQPGGSLRLSCAASGFTFSTYGMSWVRQAPGKGLEWVSGISGSGGITYYADSVRGRFTISRDNSKNTLYLRMNSLRAEDTAVYYCAKVGEYYDFWSGYSPFEYWGQGTL
VL: EIVLTQSPGTLSLSPGERATLSCRASQSVSSSYLAWYQQKPGQAPRLLIYGAFNRATGIPDRFSGSGSGTDFTLTISRLEPEDFAVYYCQLYGSSPWTFGQGTKVEIK
B5: 5.6.1A02 (antibody, V domains shown)
VH: EVQLVESGGGLIQPGGSLRLSCAASGFAVRSNYLSWVRQAPGKGLEWVSLIYSGGLTAYADSVEGRFTISRDNSKNTLYLQMNSLRVEDTALYYCARVASSAGTFYYGMDVWGQGTTVTVSS
VL: not shown

Target: T1, Ebola Zaire (Kikwit strain) glycoprotein
Experiment: cell-based or functional assay

Binder | PRNT50 (ug/ml) for Ebola Zaire (Kikwit strain) [µg/mL]
B1 | 1.57
B2 | 3.13
B3 | 3.13
B4 | 6.25
B5 | 0.195
